Reference: PMC4066776, “Molecular determinants of the DprA−RecA interaction for nucleation on ssDNA”

Molecular target: T1, WT DprA (Streptococcus pneumoniae, UniProt Q8DPI7 1-282)
T1 sequence: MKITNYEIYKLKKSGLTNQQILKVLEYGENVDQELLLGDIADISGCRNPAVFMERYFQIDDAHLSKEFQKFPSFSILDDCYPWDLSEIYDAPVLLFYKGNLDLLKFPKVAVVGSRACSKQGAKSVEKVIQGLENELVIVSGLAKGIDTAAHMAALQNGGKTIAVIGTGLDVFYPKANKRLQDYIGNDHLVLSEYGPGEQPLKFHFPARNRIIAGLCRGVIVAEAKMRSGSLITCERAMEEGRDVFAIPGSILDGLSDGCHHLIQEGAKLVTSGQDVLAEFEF
Test: fluorescence anisotropy; Pull-down: 200 mM NaCl, 20 mM Tris-HCl pH 7.5, 20 C, 30 min; anisotropy buffer not in the material
Conditions: protein: recombinant; chain copies: 2; label: fluorescein

**Q.** Does TTTTTTTTTTTTTTTTTTTT (ssDNA) [dT20] bind?
**A.** binds
